Like-named read-outs stand apart in the source and are kept apart here. Peptide text beside a SMILES is read from it. * marks the point of attachment. DOTA = O=C(O)CN1CCN(CC(=O)O)CCN(CC(=O)*)CCN(CC(=O)O)CC1
Test: Biodistribution experiments in normal mice
Type: in vivo, ddY mice
Details: for F/B ratio (Femur:blood ratio) / tissue uptake dose at 1 h / tissue uptake dose at 3 h / tissue uptake dose at 10 min: male ddY mice, no pretreatment, mean (SD) for four or five animals
Protocol: Experiments with animals were conducted in strict accordance with the Guidelines for the Care and Use of Laboratory Animals of Kanazawa University. The animal experimental protocols used were approved by the Committee on Animal Experimentation of Kanazawa University (Permit Number: AP-132633). Biodistribution experiments were performed after an intravenous administration of each diluted tracer solution (37 kBq/100 µL) to 6-week-old male ddY mice (27–32 g, Japan SLC, Inc., Hamamatsu, Japan). To investigate the effect of an excess amount of bisphosphonate on biodistribution, alendronate (20 mg/kg) was intravenously administered to mice 1 minute before the intravenous injection of ^67Ga-DOTA-(Asp)14 or ^67Ga-DOTA-Bn-SCN-HBP. Four to six mice each were sacrificed by decapitation at 10, 60, and 180 minutes post-injection. Tissues of interest were removed and weighed. Complete left femurs were isolated as representative bone samples, radioactivity was determined using an auto well gamma counter, and counts were corrected for background radiation and physical decay during counting.

O=C(O)C[C@H](NC(=O)[C@H](CC(=O)O)NC(=O)[C@H](CC(=O)O)NC(=O)[C@H](CC(=O)O)NC(=O)[C@H](CC(=O)O)NC(=O)[C@H](CC(=O)O)NC(=O)[C@H](CC(=O)O)NC(=O)[C@H](CC(=O)O)NC(=O)[C@H](CC(=O)O)NC(=O)[C@H](CC(=O)O)NC(=O)[C@H](CC(=O)O)NC(=O)[C@H](CC(=O)O)NC(=O)[C@H](CC(=O)O)NC(=O)[C@H](CC(=O)O)NC(=O)CN1CCN(CC(=O)O)CCN(CC(=O)O)CCN(CC(=O)O)CC1)C(=O)O [67Ga-DOTA-(Asp)14, metal not drawn] ({DOTA}-DDDDDDDDDDDDDD-OH)
F/B ratio (Femur:blood ratio) (10 min after i.v. administration): 6.27 (0.66) | F/B ratio (Femur:blood ratio) (60 min after i.v. administration): 185.54 (46.89) | F/B ratio (Femur:blood ratio) (180 min after i.v. administration): 591.08 (221.41) | tissue uptake dose at 1 h (male, ddY, mouse, in vivo, iv, 37 kBq/100 uL, total radioactivity, Blood, 60 min after i.v. administration, read-out: Radioactivity in Blood): 0.07 %ID | tissue uptake dose at 3 h (male, ddY, mouse, in vivo, iv, 37 kBq/100 uL, total radioactivity, Blood, 180 min after i.v. administration, read-out: Radioactivity in Blood): 0.03 %ID | tissue uptake dose at 10 min (male, ddY, mouse, in vivo, iv, 37 kBq/100 uL, total radioactivity, Bone (complete left femur), 10 min after i.v. administration, read-out: Radioactivity in Bone (Femur)): 10.1 %ID | tissue uptake dose at 1 h (male, ddY, mouse, in vivo, iv, 37 kBq/100 uL, total radioactivity, Bone (complete left femur), 60 min after i.v. administration, read-out: Radioactivity in Bone (Femur)): 12.8 %ID | tissue uptake dose at 3 h (male, ddY, mouse, in vivo, iv, 37 kBq/100 uL, total radioactivity, Bone (complete left femur), 180 min after i.v. administration, read-out: Radioactivity in Bone (Femur)): 13.3 %ID | tissue uptake dose at 10 min (male, ddY, mouse, in vivo, iv, 37 kBq/100 uL, total radioactivity, Brain, 10 min after i.v. administration, read-out: Radioactivity in Brain): 0.05 %ID | tissue uptake dose at 1 h (male, ddY, mouse, in vivo, iv, 37 kBq/100 uL, total radioactivity, Brain, 60 min after i.v. administration, read-out: Radioactivity in Brain): 0.01 %ID | tissue uptake dose at 3 h (male, ddY, mouse, in vivo, iv, 37 kBq/100 uL, total radioactivity, Brain, 180 min after i.v. administration, read-out: Radioactivity in Brain): 0.01 %ID | tissue uptake dose at 10 min (male, ddY, mouse, in vivo, iv, 37 kBq/100 uL, total radioactivity, Heart, 10 min after i.v. administration, read-out: Radioactivity in Heart): 0.62 %ID | tissue uptake dose at 1 h (male, ddY, mouse, in vivo, iv, 37 kBq/100 uL, total radioactivity, Heart, 60 min after i.v. administration, read-out: Radioactivity in Heart): 0.06 %ID | tissue uptake dose at 3 h (male, ddY, mouse, in vivo, iv, 37 kBq/100 uL, total radioactivity, Heart, 180 min after i.v. administration, read-out: Radioactivity in Heart): 0.03 %ID | tissue uptake dose at 10 min (male, ddY, mouse, in vivo, iv, 37 kBq/100 uL, total radioactivity, Kidney, 10 min after i.v. administration, read-out: Radioactivity in Kidney): 12.4 %ID | tissue uptake dose at 1 h (male, ddY, mouse, in vivo, iv, 37 kBq/100 uL, total radioactivity, Kidney, 60 min after i.v. administration, read-out: Radioactivity in Kidney): 0.99 %ID | tissue uptake dose at 3 h (male, ddY, mouse, in vivo, iv, 37 kBq/100 uL, total radioactivity, Kidney, 180 min after i.v. administration, read-out: Radioactivity in Kidney): 0.76 %ID | tissue uptake dose at 10 min (male, ddY, mouse, in vivo, iv, 37 kBq/100 uL, total radioactivity, Large-intestine, 10 min after i.v. administration, read-out: Radioactivity in Large-intestine): 0.3 %ID | tissue uptake dose at 1 h (male, ddY, mouse, in vivo, iv, 37 kBq/100 uL, total radioactivity, Large-intestine, 60 min after i.v. administration, read-out: Radioactivity in Large-intestine): 0.04 %ID | tissue uptake dose at 3 h (male, ddY, mouse, in vivo, iv, 37 kBq/100 uL, total radioactivity, Large-intestine, 180 min after i.v. administration, read-out: Radioactivity in Large-intestine): 0.15 %ID | tissue uptake dose at 10 min (male, ddY, mouse, in vivo, iv, 37 kBq/100 uL, total radioactivity, Liver, 10 min after i.v. administration, read-out: Radioactivity in Liver): 0.39 %ID | tissue uptake dose at 1 h (male, ddY, mouse, in vivo, iv, 37 kBq/100 uL, total radioactivity, Liver, 60 min after i.v. administration, read-out: Radioactivity in Liver): 0.05 %ID | tissue uptake dose at 3 h (male, ddY, mouse, in vivo, iv, 37 kBq/100 uL, total radioactivity, Liver, 180 min after i.v. administration, read-out: Radioactivity in Liver): 0.05 %ID | tissue uptake dose at 10 min (male, ddY, mouse, in vivo, iv, 37 kBq/100 uL, total radioactivity, Lung, 10 min after i.v. administration, read-out: Radioactivity in Lung): 1.19 %ID | tissue uptake dose at 1 h (male, ddY, mouse, in vivo, iv, 37 kBq/100 uL, total radioactivity, Lung, 60 min after i.v. administration, read-out: Radioactivity in Lung): 0.08 %ID | tissue uptake dose at 3 h (male, ddY, mouse, in vivo, iv, 37 kBq/100 uL, total radioactivity, Lung, 180 min after i.v. administration, read-out: Radioactivity in Lung): 0.03 %ID | tissue uptake dose at 10 min (male, ddY, mouse, in vivo, iv, 37 kBq/100 uL, total radioactivity, Muscle, 10 min after i.v. administration, read-out: Radioactivity in Muscle): 0.57 %ID | tissue uptake dose at 1 h (male, ddY, mouse, in vivo, iv, 37 kBq/100 uL, total radioactivity, Muscle, 60 min after i.v. administration, read-out: Radioactivity in Muscle): 0.08 %ID | tissue uptake dose at 3 h (male, ddY, mouse, in vivo, iv, 37 kBq/100 uL, total radioactivity, Muscle, 180 min after i.v. administration, read-out: Radioactivity in Muscle): 0.05 %ID | tissue uptake dose at 10 min (male, ddY, mouse, in vivo, iv, 37 kBq/100 uL, total radioactivity, Pancreas, 10 min after i.v. administration, read-out: Radioactivity in Pancreas): 0.5 %ID | tissue uptake dose at 1 h (male, ddY, mouse, in vivo, iv, 37 kBq/100 uL, total radioactivity, Pancreas, 60 min after i.v. administration, read-out: Radioactivity in Pancreas): 0.07 %ID | tissue uptake dose at 3 h (male, ddY, mouse, in vivo, iv, 37 kBq/100 uL, total radioactivity, Pancreas, 180 min after i.v. administration, read-out: Radioactivity in Pancreas): 0.03 %ID | tissue uptake dose at 10 min (male, ddY, mouse, in vivo, iv, 37 kBq/100 uL, total radioactivity, Small-intestine, 10 min after i.v. administration, read-out: Radioactivity in Small-intestine): 0.38 %ID | tissue uptake dose at 1 h (male, ddY, mouse, in vivo, iv, 37 kBq/100 uL, total radioactivity, Small-intestine, 60 min after i.v. administration, read-out: Radioactivity in Small-intestine): 0.08 %ID | tissue uptake dose at 3 h (male, ddY, mouse, in vivo, iv, 37 kBq/100 uL, total radioactivity, Small-intestine, 180 min after i.v. administration, read-out: Radioactivity in Small-intestine): 0.05 %ID | tissue uptake dose at 10 min (male, ddY, mouse, in vivo, iv, 37 kBq/100 uL, total radioactivity, Spleen, 10 min after i.v. administration, read-out: Radioactivity in Spleen): 0.42 %ID | tissue uptake dose at 1 h (male, ddY, mouse, in vivo, iv, 37 kBq/100 uL, total radioactivity, Spleen, 60 min after i.v. administration, read-out: Radioactivity in Spleen): 0.07 %ID | tissue uptake dose at 3 h (male, ddY, mouse, in vivo, iv, 37 kBq/100 uL, total radioactivity, Spleen, 180 min after i.v. administration, read-out: Radioactivity in Spleen): 0.03 %ID | tissue uptake dose at 10 min (male, ddY, mouse, in vivo, iv, 37 kBq/100 uL, total radioactivity, Stomach (footnote b), 10 min after i.v. administration, read-out: Radioactivity in Stomach): 0.24 %ID | tissue uptake dose at 1 h (male, ddY, mouse, in vivo, iv, 37 kBq/100 uL, total radioactivity, Stomach (footnote b), 60 min after i.v. administration, read-out: Radioactivity in Stomach): 0.1 %ID | tissue uptake dose at 3 h (male, ddY, mouse, in vivo, iv, 37 kBq/100 uL, total radioactivity, Stomach (footnote b), 180 min after i.v. administration, read-out: Radioactivity in Stomach): 0.02 %ID | tissue uptake at 1 h (male, ddY, mouse, in vivo, iv, 37 kBq/100 uL, total radioactivity, 60 min after injection, mice, read-out: accumulation in bone): 12.8 ± 1.7 %ID/g | tissue uptake dose at 10 min (mouse, in vivo, iv, 37 kBq/100 uL, total radioactivity, Blood, 10 min after i.v. administration (37 kBq/100 µL), gamma counter, read-out: Radioactivity in Blood): 1.61 %ID | accumulation of radioactivity in the femur (in words) (normal mice, i.v.): higher accumulation
